This note sets out measurements from patent US5574007.

Assay [1] has as its target protein C.
The target of assay [2] is thrombin.
Assay [3] addresses protein C. The source holds these as a separate data set.
Assay [4] deals with thrombin. The source holds these as a separate data set.

B1: polypeptide E456GlaAsp (receptor)
chain: PVEDPCFRANCEYQCQPLNQTSYLCVCAEGFAPIPHEPHRCQMFCNQTACPADCDPNTQASCECPEGYILDDGFICTDIDECENGGFCSGVCHNLPGTFECICGPDSALVRHIGTDC
modifications: gamma-carboxyglutamic acid (Gla) in place of the Glu inserted before Asp367 (third residue of the purified polypeptide, where Edman degradation detected no amino acid; Gla confirmed by amino acid analysis)
Consider B1, for which the amount of activated protein C formed, 30 min after the polypeptide addition (Example 5) (% larger than with E456Glu) in the assay with protein C [1] and in the assay with thrombin [2] was 80 each time.

B2: polypeptide E45 (receptor)
chain: DPCFRANCEYQCQPLNQTSYLCVCAEGFAPIPHEPHRCQMFCNQTACPADCDPNTQASCECPEGYILDDGFICTDI
As for B2, the production of activated protein C with protein C [3] and with thrombin [4] was 1.7 pmol throughout.
